Assay results published in a protein production outcome set (Wang et al. 2014).

Test: label from the status in PepcDB records
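Note: failed if final PepcDB status was selected cloned or expressed and not failed if soluble or beyond.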

| Sequence | protein production |
| --- | --- |
| MSHYNPEQLNFVNNHRNNVKEGYFYKNNLLKENNNKMESSKNCIMVPLINNPSHSENNFSKNNRDENINEEKSKYQFEYQNKIIQVPELKYVDKMVYDPVIIEKVKYVPKEVIKYNIIKKPVIKNIITEKKVDVLQVKEKISFKEEEIVEDVYNYVDKDLNTKWNESQYDNEMYKDLTKKKNYIGQNHLLPNNINKMGHINDRTYKHINNNITNLLEPFGPQIDVEENKIIENVFVPNVEKVIEVNKKIDIPINLPVPYIVPKPKIIDVDVPVFKFNDKYVPVPVSKKIIPKITWTDKIYQVDCLIEKPYLVYHNIIKMVPTDSKITVREYPKGIKKINPEELYEVDNLALWMRVNADLKQEHDQMKNEKYETNKKKGKGETEQLDDNISSDHTCECSESYETYEKLSNEEFNSSNEETTIKSSNENILDTLPLHPGHPLEFIHLQNKWINQDTTNIPDMYDQKYLDAHRNAVFNLTTQMPREAEVEAKQLLYIQKKLQQEETL | failed |
| MSIEAKFKKLGTDNAPGQEVRQSAAGLEALIRGAPIEGRPVDFSHGDVDAHEPTPGAFDLFSAGVQSGGVQAYTEYRGDLGIRDLLAPRLAAFTGAPVDARDGLIITPGTQGALFLAVAATVARGDKVAIVQPDYFANRKLVEFFEGEMVPVQLDYVSADETRAGLDLTGLEEAFKAGARVFLFSNPNNPAGVVYSAEEIGQIAALAARYGATVIADQLYSRLRYAGASYTHLRAEAAVDAENVVTIMGPSKTESLSGYRLGVAFGSRAIIARMEKLQAIVSLRAAGYSQAVLRGWFDEAPGWMEDRIARHQAIRDELLHVLRGCEGVFARTPQAGSYLFPRLPKLAVAPAEFVKILRLQAGVVVTPGTEFSPHTADSVRLNFSQDHEAAVAAARRIVTLVERYRA | not failed |
| MSIESLWSSRFQQHIQNIITYFARMINGLLYSFIFISCVGAYYYAQFLKASPSKGISLIIITIVLTFIITRCPIRTFIQKPDAVYLLALEEKLTSYFKKSLLYNYIMQLFPLLFTFLILVPLAMQSLQLTVPFLCTIFIVLMITKAWNMYIHWMWRDSHEKNIWLIIRITCNALIIYMLFYSANVLILGGLLLLLAFLLLYTKKQPTKRIPWDYIIEQEEKMNVRFYQFASIFTDVPQLNKQVNKRKWLTNWIEPLLHKKRATFFYLHTLAFLRGNDYFGIYIRLRLIGAFALYFIPNIYVKGAIAYIVLYMISMQLRSLWKYFSGNIIVALYPIHTEERMKQFLHLIFILLSIQLIVFSSVILIATGQFLHILIIMIVGLLWIKFIIVPKTKQRISAF | failed |
| MSIITRLFNNSDFEKLNQLCKLYDDLGYPTNENDLKKRLKKITNHDDYFLLLLIKENKIIGLSGMCKMMFYEKNAEYMRILAFVIHSEFRKKGYGKRLLADSEEFSKRLNCKAITLNSGNRNERLSAHKLYSDNGYVSNTSGFTKQL | not failed |
| MSIKVGDVFKYERRFTEEEVFEFANITGDKGRHHMEYDENGRLMVHGLLTASIGTKVGEELHYIARELVSEFIRPVFAGDTITCELTLTNVEQMEGYKKVSIESVYRNQNEKTVLVGTSYGVIRG | failed |
| MSILMPVRNEERFLPAALASLCRQSLTAWELIVVDDGSTDDTPELLRVAAARDRRVRVFNNAGAGLVDALNYGLAHCRAELVARMDGDDISHPQRLERQAAALDADPGLGLVATRFRHFPRHSVGLGMRAYEEWQNGLLTHEEIMRDRFVESPVVHPSVMARRQALTDAGGYRKTGWAEDYDLWLRLAAGGVRFTRLPEVLFFWRERPERATRTMGEYAADAFRACKIHHLCQGFLLGVDNVTLAGAGLEGRAWQRALAREGVRVGRWLDVDPRKQGRILHGAPVTAPDDVRAGAEKILVTVGTRGARDGVRAWARRAGLREGEDFVCVTLEHHHHHH | failed |
| MSINDVAKLFGSAWIVMMADVDAASILTGVADGQTYGYRLIILLLVLTLPLYIVQEAAGRVGAVNNGKGLGTLLREKFSQKFALTAAIPMFLVDLFTYVVEYVGIAVGSLMIGVPVYISLPLFFVIHLSIVLTRTYEKMEKTLLGISFFLVIAFIVQAFLRGVSPNQQLLYFSASKSFLFFLAANIGAVVMPFMIFYQASATAYKYNNSALSKDVKVKWSSMETFIGALVSELLMVAIEISTTGLSSSIDPLNYREMSYALSAISGIYSPYVFGIGLICGGLLALIVESLGSAWGTLEALNKHNHRNTTLLYVFESVPAIIIASIFSQNYDQIVNTVLSLMSVTPIIVFIPAFFVGLLVGDEKIMGKYSYSRRRMVIYWITVVILLISGIMSLL | failed |
| MSINPYVTIFLLLAATSSQALSISLADPCTVSDFPALCRSTIKGQTNVNAATDVAIKELMKRTRQAKKIAEKELKRDGGVATCLSNFNSAFDNLEKALTNIKENDGFSLNINLSAALTDYDTCSDSMKETKEVNVIYKSAGVLYRMADNCLALSTLVKH | failed |
| MSIPNGGSHQSLEALLAAYDFRLRHEPRNCTLWNNRGILLERLNRWTEALASYNCALEITPQRQEALNNRAIVLEHLGRLPEAVESYEQALAIDRQQPEVWNNRGIVLRKLGRLEDAIASYQQAIALAAHYAQAWANCGFALWQQGRYREAVRHYEQSVAIDPDQSSAWRQLGQIYLSVDQPDQALRCLDQAIALQPQQATAWTWRGHALYNLGQYAAALTSYENAELLGDRPLLLSIQRGHTLAQLERYEEALASYAAILPQLTGEAAAEVAYYQGLVWAYLQDWTAALAAFDQAIAGNPDLAEAWYNRAALHARLDQPVAAIADLQQAIALDPDTYRSLAAEDPDYQTLHAHPDWIQLQRA | failed |
| MSIPSFLKLVEIQTKIASVFPFMLGTLFVVYQYDMFKPINTLIIFGSMLIFDLTTTAINNYMDYRKATDNHDYDYRTTSNVIGQEQIPVRTVIITIFLMFFIATGLGVWLVFRTDLLVLLIGFVCFCIGILYTFGPVPLSRMPLGEIFSGVTMGFGIFFLAVYVNAYDAGIANLLWQGEMVTIQFNLIEIIRIGVVSLPCIFTIANIMLANNLCDLDEDIRNHRYTLPYYIGRKMGVLLFNTLYYASFLAVVVSVAINFLHPIMLLSLITIYPVYRNLVKFNKEQVKSKTFVIGIRNFVLINATLTILMAVSVVLQQLT | failed |
| MSIREVIMDYLENSSKKALSVEELSVALHMNKAKDYKVFVKTLASLEAEHLLNFTAKGKVELAEKEEAKVVISGIFRANAAGFGFVSIDAEEPDVFVARGQTAFALDGDEVFIEIDKNANALKGTSAEGHVVEIIRHDVHQVVGTFVALNDDEKEQTGLIGFVKSRNKKIPYRVYLENEGLIPENKAIVRVEITHYPDKEFPQTMQGLVTEIIGQADDQGIDVLEVLASMDIVSEFPKEVLDQAEAVPEEVPENEIVGRVDYRNEITFTIDGADAKDLDDAVHAKRLENGNYELGVHIADVSHYVTENSPLDKEAYERGTSVYVTDRVVPMLPERLSNGICSLNPRINRLTQSCVMEISPEGRVINYQISQSIIKTTERMTYDAVNQMIAGDEAALENYAKIADSVKIMVELHHILEAMRKRRGAIDFDTVEAKIIVNEKGLPIEIRKRTRGIAERMIESFMLEANETVATHFEAHGLPFIYRIHEQPKADRLQRFIDFAATFGMQIEGTSNGIDQKVLQAFMKKIKGQPGEMVLSTMLLRSMQQARYSENNEGHFGLAAENYTHFTSPIRRYPDLLVHRLIREIGEGKTPANILQKWEDKIPEIAEHSSHRERRAVDAEREVEKMKKAEFMEEHVGEEYEGIIASVTRFGMFIELENTIEGLVHISTLKGDYFNYQERMLALIGERSGLTFKIGQPIKIKVVKADRMTGEIDFEYLPSELDLIDKAAKAKKKPDHKGRKKSNQSLKVKSVAPKSTDKSANKSKNGRRADEKFEFDKKKKKSAKKPFYSKAAKGKFTDKKDNGKKFTDGRKKPHKRG | failed |
| MSIRLKTALLSGILLAILVSGLGGVLWTVVRPGFQDIERARAADHMTALLAAISADIDSIGTFILSYSSWDETYAFVRTGDPTYVANNLAVEGAKNAQSHFALVLTPKGRTVFSRLWNDDFTATLPPPDAAGGGLPANHPLMAALSHPEGVRGLLQTPRGPLAVAARPILPSNEHGPPRGVLVFGRWLTHALSDHPPLPHLSPLRLWLAPAPGDAPENVRRLLAADGPDLEIDGIGEPTSLVTAGIRLVDLEGAPVAALTTTLAKTVEPQGESIIRLALVIAALGSLGVVAVGLVSNHLMIVAPLRRLESHITTLSRTGDLDTRLVLDRKDEIGLLARAFATMQGRIRHLAHYDPLTGLPNRTLFTMLGEGALARRRADRNGGGRRVGVAILDLDRLNTLTIGLGQGGSERALVAVGRRLAALAGPADVVARGGDGRFLVLLGDLAPAQAGSIVEREAAERLASAFAKPFTPDDLVGAPLSLTASIGLALFPQDGETLETLVTHAEVAVHQAKLLGRNNFQFFDDTLNRQAREILALESALYEALADNTLSLCFQPRIDAVRGHAIELKALARWDHPSRDLIVLEDVLPLIKQDGLLAEIDRWMSNAACRQIRQWRDQGVSFPPIAIALSARPLTAGDPGLAPIAEAIAANGVDPGDLAVEIAQSAIKGQFPETKAPETQAPEDRPAEELPWPDGLAGLGLGLVIDVADAGVVSPALLRRFPLTRLTIGAALVAKLPDCRESRALVRALIALADELDLECLAEGVERGDQADWLLAAGCRLQQGLFHARPQDQTVILRWLGQTPPRGLSSPGPRDRKQDGV | failed |
| MSITERFFYLEKEPCVIYLPEKPNGFSVMLLGDYNYFIENGTSLWTQHTGRSYFLHGLIEEGYTVFSSNLYGRHWGNDQSVRLAKRLYDVVLRKETLNAKMHIMADGMGALVALEMMNKYPECIRSVIMLNPCLDLPEYVEFEKEHKFFYKRLLKELSLAYDAKEEELEA | failed |
| MSITRRDILKGAAATGAIAATSVLSGCQKTGATNSMADLAHKIKRPNLLIIFPDEMRAQALGFMGEDPSLTPNLNRFAKDSAVLKQAVSNFPLCTPFRGMLMTGQYPYRNGIQGNSHTATPGMFGGKDFGIELKKNQSTWSDILSQQGYSMGYIGKWHLDAPEAPFVPSYNNPMEGRYWNDWTTPDRRHGFDFWYSYGTYDKHLTPMYWTNDTPRDQPLHINQWSPEHEADIAIKYLRNENGNYRNNDKPFTLVVSMNPPHSPYDQVPQKYLDRFKESSRTLNSRPNVQWDKEYLEGYGPEYFKEYMAMVNGVDEQFGRIVDELDALNLAKDTLVVFFSDHGCCMGSNGNPTKNVHYEEAMRIPMMFRWPGKIAPKSDDLLFSAPDIYPTLFGLMGMDDLIPDTVEGTDFSKTVKSESGDIKPTSQFYTFMPYGGQSYGRRGIRNKQYTLMIDRKIGKPLTYVLHDNQVDPYQMKNIAEQQPELISQLIQNELMPWLEHTGDPWRPTEVPKNTANAYT | failed |
| MSIWWLNNTVRVAREKEAVENLATETEWFVLDRWEIHDYKFAAIGSIVAHGATYPIRLVYPDNFPLVPAWVEPQDPEAKWSYHQYGKGGALCLELRPDNWTSRANGADVLRSAYGLLNLENPLGDGEKGKVTSAHNVGEIQKYNWGESPVFIGQECLTRLLSGDIQDVNALRWSASDKVWPIFLSDAVDRQGVQRPPSADLNTWRLHVPVALVSGKVPDGLPSERSTFISTLWESSPVEGEVNFVTVFIEDDGINVFHVLSDNAYHRKVYVLPPETGLRSGRAPSAQAKKVAVVGAGSVGSKVAEMLLRSGIDTLRIFDGDVFLPGNLERHVLDWRDVGYHKVHGLKRRLLHIVPGADIMTIDQNLNWQKSARTNALHFDLITACDIIVDASGDPATSMLLGALAFENKKPFVSVEVFEGGIGALVAPSVPERNAAYTLGREALLNWTDEKGRVVPLSAGDRAYEAISDDGDIIVADDAAISMAASHAARVVLDILDDKLDDFRWLLIGFRKEWAFDMHGHVIALDVGGPSEWNNNTEDADAQKFVIEIAGELLDVLKAFTQ | failed |
| MSIYMIGLIRHSETKVFNKALIQGSLIAYIVFMLFAWGGEAIFSKYLNVRFEAFQIFGGLIFLVIGYRYVFQGADTIGEMRGAPEHLAGTIAMPFMIGPGTISAAVVTGIEMSIGAAALVIGFTMFLTCSILILMKFSHDHLRYKHAKYIDRYFDIVGRLSALLIGTIAVDMIINGVTGLIHKV | failed |
| MSKAIVLDSHLKEKGSVELPKRYESINSHNLYLYVKHYLSSARANTAKSKNRAEVSGGGRKPWAQKGGGRARAGSITSPVFVGGGVSHGATNNRNYNLKINKKQKRLALEYALEEKAQANKLFVVEKIAIKGVVEDNKRKHLTKEANQMFQALEQRDTLFVCMNMDEYTELAFSNLKKCLIVDVSELNAYLLAAFSSVVMEEAAFQHVVQDKTEE | failed |
